Where a chain is given by its changes, count along the chain named.
B1: NOV0712 (antibody, human IgG1, kappa, V domains shown)
VH: QVQLLESGGGLVQPGGSLRLSCAASGFTFSSHGMHWVRQAPGKGLEWVSVISGSGSNTGYADSVKGRFTISRDNSKNTLYLQMNSLRAEDTAVYYCARQWGSYAFDSWGQGTLVTVSS
VL: DIQMTQSPSSLSASVGDRVTITCRASQSISSYLNWYQQKPGKAPKLLIYAVSTLQSGVPSRFSGSGSGTDFTLTISSLQPEDFATYYCQQSGTFPPTTFGQGTKVEIKR
B2: NOV0712-sulfo-SPDB-DM4 (antibody, human IgG1, kappa, V domains shown)
VH: B1 VH
VL: B1 VL
modifications: sulfo-SPDB-DM4 linker/payload on antibody amines, positions not given

Assays:
[1] = target: T1, mouse CDH6 expressed on CHO cells (mouse, UniProt P97326 54-790); experiment: FACS titration
T1 sequence (looked up): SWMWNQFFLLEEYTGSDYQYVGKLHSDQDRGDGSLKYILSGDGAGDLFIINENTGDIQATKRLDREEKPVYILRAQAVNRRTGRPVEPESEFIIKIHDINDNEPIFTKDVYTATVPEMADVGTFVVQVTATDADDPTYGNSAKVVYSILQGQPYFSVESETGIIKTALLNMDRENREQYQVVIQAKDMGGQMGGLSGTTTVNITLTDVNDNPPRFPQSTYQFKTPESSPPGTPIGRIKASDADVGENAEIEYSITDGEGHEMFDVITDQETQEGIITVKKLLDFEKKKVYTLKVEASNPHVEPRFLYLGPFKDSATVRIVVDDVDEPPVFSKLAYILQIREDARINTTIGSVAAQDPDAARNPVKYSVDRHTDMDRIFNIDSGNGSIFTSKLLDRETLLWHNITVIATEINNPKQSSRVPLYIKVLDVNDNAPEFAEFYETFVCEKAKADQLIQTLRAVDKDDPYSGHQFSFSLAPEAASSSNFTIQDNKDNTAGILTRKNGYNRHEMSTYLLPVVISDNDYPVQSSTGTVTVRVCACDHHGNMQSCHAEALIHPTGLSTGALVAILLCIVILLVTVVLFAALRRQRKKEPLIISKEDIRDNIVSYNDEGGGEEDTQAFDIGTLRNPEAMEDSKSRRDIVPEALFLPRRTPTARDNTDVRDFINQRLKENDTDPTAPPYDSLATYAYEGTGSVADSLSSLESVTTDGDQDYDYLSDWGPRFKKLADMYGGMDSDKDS

[2] = target: T2, cynomolgus CDH6 expressed on CHO cells (cynomolgus, UniProt A0A2K5TW62 54-790); experiment: FACS titration
T2 sequence: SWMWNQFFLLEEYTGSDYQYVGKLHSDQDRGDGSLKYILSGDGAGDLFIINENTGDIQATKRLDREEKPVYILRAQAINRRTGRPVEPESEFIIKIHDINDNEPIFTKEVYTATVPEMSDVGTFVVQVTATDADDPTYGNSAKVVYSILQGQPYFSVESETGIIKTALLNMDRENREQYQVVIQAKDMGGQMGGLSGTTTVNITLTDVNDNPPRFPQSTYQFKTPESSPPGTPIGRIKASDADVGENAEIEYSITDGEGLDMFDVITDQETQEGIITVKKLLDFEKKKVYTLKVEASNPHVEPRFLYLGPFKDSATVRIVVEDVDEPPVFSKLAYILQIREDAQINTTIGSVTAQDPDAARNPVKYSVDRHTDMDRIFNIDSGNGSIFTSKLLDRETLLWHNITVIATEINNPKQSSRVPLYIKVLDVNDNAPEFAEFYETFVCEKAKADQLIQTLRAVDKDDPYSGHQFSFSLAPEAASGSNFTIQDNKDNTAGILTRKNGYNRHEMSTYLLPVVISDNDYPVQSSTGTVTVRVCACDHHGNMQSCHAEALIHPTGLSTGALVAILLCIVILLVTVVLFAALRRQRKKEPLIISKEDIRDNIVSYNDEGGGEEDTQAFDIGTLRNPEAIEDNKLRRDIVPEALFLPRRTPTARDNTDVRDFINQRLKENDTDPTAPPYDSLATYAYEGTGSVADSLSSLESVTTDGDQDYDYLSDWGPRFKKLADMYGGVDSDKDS

[3] = target: T3, human CDH6 expressed on cells (human, UniProt P55285 54-790); experiment: FACS titration
T3 sequence: T2 sequence with H300Y, R457H, G707A

[4] = target: T3, human CDH6 expressed on cells; experiment: FACS titration; remark: listed apart in the source
[5] = target: T4, rat CDH6 expressed on CHO cells (rat, UniProt P55280 54-789); experiment: FACS titration
T4 sequence (looked up): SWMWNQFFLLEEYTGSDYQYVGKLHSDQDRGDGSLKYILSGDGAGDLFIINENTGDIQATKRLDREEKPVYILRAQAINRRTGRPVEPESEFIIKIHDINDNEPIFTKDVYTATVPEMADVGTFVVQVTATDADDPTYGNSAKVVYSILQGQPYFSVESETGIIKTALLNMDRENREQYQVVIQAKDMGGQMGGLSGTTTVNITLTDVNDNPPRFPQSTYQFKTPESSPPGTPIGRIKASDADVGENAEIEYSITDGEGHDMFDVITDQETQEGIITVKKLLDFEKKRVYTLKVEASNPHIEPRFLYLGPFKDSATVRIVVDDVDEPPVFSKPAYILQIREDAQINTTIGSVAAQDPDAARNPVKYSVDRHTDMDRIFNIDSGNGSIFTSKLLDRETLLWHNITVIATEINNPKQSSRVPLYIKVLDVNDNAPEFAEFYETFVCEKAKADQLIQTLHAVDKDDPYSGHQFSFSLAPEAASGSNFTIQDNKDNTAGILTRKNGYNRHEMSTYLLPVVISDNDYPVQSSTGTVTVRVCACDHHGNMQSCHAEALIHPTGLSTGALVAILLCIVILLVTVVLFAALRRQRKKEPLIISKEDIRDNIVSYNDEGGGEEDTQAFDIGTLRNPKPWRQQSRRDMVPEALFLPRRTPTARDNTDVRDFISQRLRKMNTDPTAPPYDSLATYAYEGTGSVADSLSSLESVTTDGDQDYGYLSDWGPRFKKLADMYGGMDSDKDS

[6] = target: T1, mouse CDH6 expressed on CHO cells; experiment: FACS titration on CHO-moCDH6
[7] = target: T4, rat CDH6 expressed on CHO cells; experiment: FACS titration on CHO-ratCDH6
[8] = target: T3, human CDH6 expressed on cells; experiment: FACS titration on CHO-TO-huCDH6
[9] = target: T2, cynomolgus CDH6 expressed on CHO cells; experiment: FACS titration on CHO-cyCDH6

Binder	EC50 [1]	EC50 [2]	EC50 [3]	EC50 [4]	EC50 [5]	EC50 [6]	EC50 [7]	EC50 [8]	EC50 [9]
B1	1.26 nM	1.07 nM	0.946 nM	0.386 nM	0.814 nM				
B2				0.364 nM		0.94 nM	0.637 nM	0.651 nM	0.606 nM

Source: patent US20160046711A1 (Novartis, published 2016)
